The record followed here is publication PMC12135040, “Long-Acting Human PASylated Leptin Reaches the Murine Central Nervous System and Offers Potential for Optimized Replacement Therapy” (Molecular Pharmaceutics, 2025).

For test [1], the target named is T1, recombinant LepR-Fc fusion protein (human, UniProt P48357 22-839).
T1 sequence (looked up): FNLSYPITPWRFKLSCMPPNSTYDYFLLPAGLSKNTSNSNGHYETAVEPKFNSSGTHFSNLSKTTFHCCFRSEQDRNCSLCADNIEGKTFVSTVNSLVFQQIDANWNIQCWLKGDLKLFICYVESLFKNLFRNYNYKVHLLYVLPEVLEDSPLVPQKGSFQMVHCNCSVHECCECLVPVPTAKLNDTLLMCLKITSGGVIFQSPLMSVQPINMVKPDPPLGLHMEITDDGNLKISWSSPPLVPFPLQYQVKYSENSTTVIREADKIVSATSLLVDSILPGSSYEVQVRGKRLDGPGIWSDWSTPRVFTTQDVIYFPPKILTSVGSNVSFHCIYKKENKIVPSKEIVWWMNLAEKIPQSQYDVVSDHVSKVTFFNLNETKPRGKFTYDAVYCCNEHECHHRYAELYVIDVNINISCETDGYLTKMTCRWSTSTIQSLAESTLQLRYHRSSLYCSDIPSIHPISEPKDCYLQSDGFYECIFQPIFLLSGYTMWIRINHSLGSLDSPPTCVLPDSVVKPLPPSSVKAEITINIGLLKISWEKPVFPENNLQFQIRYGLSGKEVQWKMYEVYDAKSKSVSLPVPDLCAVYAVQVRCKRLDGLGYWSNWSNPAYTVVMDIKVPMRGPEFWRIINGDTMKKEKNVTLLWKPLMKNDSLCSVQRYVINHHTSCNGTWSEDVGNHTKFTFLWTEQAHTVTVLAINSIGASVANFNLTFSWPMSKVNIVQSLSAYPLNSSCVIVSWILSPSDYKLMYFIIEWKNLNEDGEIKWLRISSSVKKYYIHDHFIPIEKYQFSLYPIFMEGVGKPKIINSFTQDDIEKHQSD

The target in test [2] is T1, recombinant LepR-Fc fusion protein. Description: cell-based or functional assay.

Like-named read-outs stand apart in the source and are kept apart here.

As for “PAS(200)-huLeptin (human wild-type leptin, PASylated) (from UniProt P41159 22-167) (ligand)”, the EC50 of STAT3-responsive dual luciferase reporter in HEK293 cells transiently transfected with human LepRb (whole receptor on cells); PASylated leptin 50 fM to 500 nM, 18 h in test [1] amounted to 1.2 nM.

With “huLeptin^W100E (recombinant, unmodified) (from UniProt P41159 22-167) (ligand)”, the EC50 of STAT3-responsive dual luciferase reporter in HEK293 cells transiently transfected with human LepRb (whole receptor on cells); leptin 50 fM to 500 nM, 18 h in test [1] was 0.1 nM.

For “huLeptin^W100Q (recombinant, unmodified) (from UniProt P41159 22-167) (ligand)”, the EC50 of STAT3-responsive dual luciferase reporter in HEK293 cells transiently transfected with human LepRb (whole receptor on cells); leptin 50 fM to 500 nM, 18 h in test [1] is 0.13 nM.

As for “human wild-type leptin (recombinant, unmodified) (from UniProt P41159 22-167) (ligand)”, in test [1], the EC50 of STAT3-responsive dual luciferase reporter in HEK293 cells transiently transfected with human LepRb (whole receptor on cells); leptin 50 fM to 500 nM, 18 h was determined as 0.1 nM.

As to “murine leptin (recombinant, unmodified) (from UniProt P41160 22-167) (ligand)”, the EC50 of STAT3-responsive dual luciferase reporter in HEK293 cells transiently transfected with human LepRb (whole receptor on cells); leptin 50 fM to 500 nM, 18 h in test [1] turned out to be 0.04 nM.

B1: His6-PAS(200)-muLeptin (ligand)
chain: ASPAAPAPASPAAPAPSAPAASPAAPAPASPAAPAPSAPAASPAAPAPASPAAPAPSAPAASPAAPAPASPAAPAPSAPAASPAAPAPASPAAPAPSAPAASPAAPAPASPAAPAPSAPAASPAAPAPASPAAPAPSAPAASPAAPAPASPAAPAPSAPAASPAAPAPASPAAPAPSAPAASPAAPAPASPAAPAPSAPAAVPIQKVQDDTKTLIKTIVTRINDISHTQSVSAKQRVTGLDFIPGLHPILSLSKMDQTLAVYQQVLTSLPSQNVLQIANDLENLRDLLHLLAFSKSCSLPQTSGLQKPESLDGVLEASLYSTEVVALSRLQGSLQDILQQLDVSPEC
As to B1, in test [2], the “EC50 of STAT3-responsive dual luciferase reporter in HEK293 cells transiently transfected with human LepRb (whole receptor on cells); PASylated leptin 50 fM to 500 nM, 18 h” value amounted to 0.16 nM.
